In test [1] the target is T1, PSIIm-S/27 (monomeric photosystem II-PsbS/Psb27 complex) (Nicotiana tabacum, UniProt P69556+P69686).
T1 construct: gene psbA; native PSII core monomer from stromal lamellae/grana margins; His6 tag at 5' end of psbE; beta-DDM; PsbS and Psb27 quasi-stoichiometric; with Photosystem II CP47 reaction center protein; Photosystem II CP43 reaction center protein; Cytochrome b559 subunit alpha; Cytochrome b559 subunit beta; Photosystem II 22 kDa protein, chloroplastic; Photosystem II repair protein PSB27, chloroplastic
Briefly: flash-induced chlorophyll fluorescence decay. Particulars: 10 µM DCMU, 15 °C (also 20 °C), pH 6.5; QB site, blocks electron transfer from QA. The test is classed as biochemical.

Test [2] concerns the target photosystem II monomer core complex (PSIIm), His6-tagged on PsbE (N. tabacum | N. tabacum (endogenous in tobacco thylakoids)) (UniProt P69384).

Chain of PsbS (Q9SMB4 67-274): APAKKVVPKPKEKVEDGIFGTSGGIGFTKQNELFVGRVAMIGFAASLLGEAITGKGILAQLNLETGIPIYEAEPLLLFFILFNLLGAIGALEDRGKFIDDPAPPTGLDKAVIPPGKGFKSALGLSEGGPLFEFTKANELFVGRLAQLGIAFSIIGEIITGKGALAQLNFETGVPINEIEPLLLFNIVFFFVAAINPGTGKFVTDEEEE

On to `CN(C)C(=O)Nc1ccc(Cl)c(Cl)c1` [DCMU], for which the “flash-induced chlorophyll fluorescence decay” value in test [1] is “presence of PsbS and/or Psb27 does not interfere with the DCMU binding”.
Compound Psb27 (natural protein) came in with a decay of flash-induced chlorophyll fluorescence yield (QA^•− oxidation) at 15 °C, PSIIm-S/27 against PSIIm in test [2] of 10 fold.
“PsbS (from UniProt Q9SMB4 67-274) (natural protein)” displayed a decay of flash-induced chlorophyll fluorescence yield (QA^•− oxidation) at 15 °C, PSIIm-S/27 against PSIIm in test [2] of 10 fold.
